Source: US20230391890A1 (CORNELL UNIVERSITY, published 2023)

T1: native CEMIP/KIAA1199 expressed on the surface of human cancer cells (human, UniProt Q8WUJ3 31-1361)
T1 construct: Endogenous CEMIP of MKN45 gastric and N2LA lung cancer cells in flow cytometry; The same entry is used for CEMIP on exosomes of brain tropic MDA-MB231 cells in the brain slice assay; also called native cell surface CEMIP/KIAA1199; CEMIP on MKN45 and N2LA cells
T1 sequence: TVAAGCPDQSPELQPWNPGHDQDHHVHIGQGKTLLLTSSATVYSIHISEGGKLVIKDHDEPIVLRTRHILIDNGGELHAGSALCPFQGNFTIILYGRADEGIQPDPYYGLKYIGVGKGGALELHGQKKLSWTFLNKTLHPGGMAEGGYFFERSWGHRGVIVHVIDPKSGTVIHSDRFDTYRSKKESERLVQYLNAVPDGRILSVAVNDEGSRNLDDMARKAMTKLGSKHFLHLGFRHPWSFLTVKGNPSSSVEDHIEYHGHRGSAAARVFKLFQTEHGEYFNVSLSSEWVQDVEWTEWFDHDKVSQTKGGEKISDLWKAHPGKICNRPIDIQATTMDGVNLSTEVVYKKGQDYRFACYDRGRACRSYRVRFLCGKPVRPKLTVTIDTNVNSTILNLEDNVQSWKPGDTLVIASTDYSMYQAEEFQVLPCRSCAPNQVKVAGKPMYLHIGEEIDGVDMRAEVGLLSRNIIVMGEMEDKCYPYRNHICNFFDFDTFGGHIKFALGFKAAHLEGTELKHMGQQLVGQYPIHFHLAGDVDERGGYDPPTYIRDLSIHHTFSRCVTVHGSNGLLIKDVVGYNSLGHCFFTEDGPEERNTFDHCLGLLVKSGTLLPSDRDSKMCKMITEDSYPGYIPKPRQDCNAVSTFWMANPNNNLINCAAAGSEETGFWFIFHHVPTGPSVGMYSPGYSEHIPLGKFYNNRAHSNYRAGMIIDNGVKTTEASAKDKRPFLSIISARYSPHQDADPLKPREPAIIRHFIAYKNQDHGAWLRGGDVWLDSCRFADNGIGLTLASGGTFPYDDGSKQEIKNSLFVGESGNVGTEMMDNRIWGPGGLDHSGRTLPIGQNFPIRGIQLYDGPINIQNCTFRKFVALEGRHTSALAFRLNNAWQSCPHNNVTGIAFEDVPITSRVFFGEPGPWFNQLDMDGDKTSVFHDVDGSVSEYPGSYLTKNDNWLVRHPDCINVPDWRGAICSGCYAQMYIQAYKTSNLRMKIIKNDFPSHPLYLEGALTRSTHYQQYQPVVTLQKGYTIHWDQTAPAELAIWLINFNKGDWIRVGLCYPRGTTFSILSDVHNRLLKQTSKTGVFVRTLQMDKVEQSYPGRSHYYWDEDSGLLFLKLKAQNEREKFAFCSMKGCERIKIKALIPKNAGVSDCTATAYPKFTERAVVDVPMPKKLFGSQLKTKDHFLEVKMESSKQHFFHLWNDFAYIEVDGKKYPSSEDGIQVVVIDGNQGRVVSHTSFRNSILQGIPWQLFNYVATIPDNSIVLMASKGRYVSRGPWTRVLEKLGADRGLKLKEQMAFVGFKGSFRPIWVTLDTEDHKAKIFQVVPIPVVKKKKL

T2: purified KIAA1199/CEMIP protein (aa 1-649) (human, UniProt Q8WUJ3 31-649)
T2 construct: also called recombinant KIAA1199/CEMIP protein
T2 sequence: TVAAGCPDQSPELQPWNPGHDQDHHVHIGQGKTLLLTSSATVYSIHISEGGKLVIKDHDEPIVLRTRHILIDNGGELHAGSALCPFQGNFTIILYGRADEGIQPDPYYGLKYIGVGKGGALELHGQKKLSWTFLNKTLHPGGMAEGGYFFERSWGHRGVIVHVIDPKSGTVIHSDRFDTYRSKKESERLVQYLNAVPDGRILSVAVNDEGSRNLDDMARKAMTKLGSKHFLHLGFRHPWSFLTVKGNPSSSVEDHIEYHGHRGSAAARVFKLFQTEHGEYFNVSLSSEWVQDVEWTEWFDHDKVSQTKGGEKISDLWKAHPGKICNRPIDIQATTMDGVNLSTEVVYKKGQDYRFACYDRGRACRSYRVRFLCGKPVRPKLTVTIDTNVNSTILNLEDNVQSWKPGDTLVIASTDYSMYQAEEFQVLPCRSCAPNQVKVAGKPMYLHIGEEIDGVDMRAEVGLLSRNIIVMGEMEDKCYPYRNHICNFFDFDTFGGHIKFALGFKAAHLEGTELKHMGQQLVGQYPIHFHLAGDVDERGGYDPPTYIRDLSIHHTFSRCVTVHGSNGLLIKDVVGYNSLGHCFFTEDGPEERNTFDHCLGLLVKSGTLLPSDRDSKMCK


Columns and labels:
[1] = target: T1, native CEMIP/KIAA1199 expressed on the …; assay: flow cytometry on MKN45 cells
[2] = target: T2, purified KIAA1199/CEMIP protein (aa …); assay: ELISA on recombinant CEMIP, purified antibody
[3] = target: T1, native CEMIP/KIAA1199 expressed on the …; assay: cell-based or functional assay

| Binder | binding result [1] | binding result [2] | GFP+ parental MDA-MB231 cells on the slice, 3D organotypic brain slice assay, CEMIP-positive exosomes pre-incubated with antibody [3] [fold decrease] |
| --- | --- | --- | --- |
| 12A12 (cAb5776) (antibody, mouse IgG1, kappa, V domains shown, Mouse monoclonal antibody from a hybridoma (supernatant, later purified)) VH: EVQLQQSGPELVKPGVSMKISCKASGYSFTAYTMNWVKQSHGENLEWIGLINPYNGGTTYNQKFKGKATLTVDKSSSTAYMELLSLTSEDSAVYYCASYDYGYAMDYWGQGTSVTVSS VL: DVLMTQTPLSLPVSLGDQASISCRSSQSIVHRSGNTYLEWYLQKPGQSPKLLIYKVSNRFSGVPDRFSGSGSGTDFTLKISRVEAEDLGVYYCFQGSHVPWTFGGGTKLEIKR | binds | binds | – |
| 07F11C02 (cAb4853) (antibody, mouse IgG2a, kappa, V domains shown) VH: DVQLVESGGGLVQPGGSRKLSCAASGFAFSSFGMHWVRQAPERGLEWVAYISSASNTIYYADTVKGRFTISRDNPKSTLFLQMTSLRSEDTAIYYCAKRDWDLYAMDYWGQGTSVTVSS VL: DIVMTQSQKFLSTSVGDRVTITCKASQNVGTAVAWYQQKPGQSPELLIYSASNRHTGVPARFTGSGSGTDFTLTITNMQSEDLADYFCQQYSSSPTFGGGTKLESKR | – | – | 6 |

Second part, the binder after the results:

| binding result [1] | binding result [2] | GFP+ parental MDA-MB231 cells on the slice, 3D organotypic brain slice assay, CEMIP-positive exosomes pre-incubated with antibody [3] [fold decrease] | Binder |
| --- | --- | --- | --- |
| binds | binds | – | 13G04 (cAb5778) (antibody, mouse IgG1, kappa, V domains shown, Mouse monoclonal antibody from a hybridoma (supernatant, later purified)) VH: EVHLQQSGPELVKPGASMKISCKASGYSFTAYTMNWVKQSHGKNLEWIGLINPYNGGTTYNQKFKGKATLTVDKSSSTAYMELLSLTSEDSAVYYCASYYGGRGWYFDVWGAGTSVTVSS VL: DIVLTQSPASLAVSLGQRATISCRASKSVSTSGYSYVHWYQQKPGQPPKLLIYLASNLESGVPARFSGSGSGTDFTLNIHPVEEEDAATYYCQNSRELPYTFGGGTKLEMKR |
| binds | binds | – | 12D08 (cAb5777) (antibody, mouse IgG2a, kappa, V domains shown, Mouse monoclonal antibody from a hybridoma (supernatant, later purified)) VH: EVQLQQSGAELVKPGASVKLSCTASGFNIKDTYMHWVKQRPEQGLIWIGNIDPANGHTKYAPKFQGKATITADTSSNTAYLQLSSLTSEDTAVYYCARSNDYDVDFDYWGQGTTLTVSS VL: DIVMSQSPSSLAVSAGEKVTMSCKSSQSLLNSRTRKNYLAWYQQKPGQSPKLLIYWASTRESGVPDRFTGSGSGTDFSLTISSVQAEDLAVYYCKQSYNLYTFGGGTKLEIKR |
| binds | binds | – | 12D02 (cAb5775) (antibody, mouse IgG1, kappa, V domains shown, Mouse monoclonal antibody from a hybridoma (supernatant, later purified)) VH: EVQLQQSGPELVKPGASMKISCKASGYSFTAYTMNWVKQSHGENLEWIGLINPYNGGTTYNQKFKGKATLTVDKSSSTAYMELLSLTSEDSAVYYCASYDYGYAMDYWGQGTSVTVSS VL: DVLMTQTPLSLPVSLGDQASISCRSSQSIVHRNGNTYLEWYLQKPGQSPKLLIYKVSNRFSGVPDRFSGSGSGTDFTLKISRVEAEDLGVYYCFQGSHVPWTFGGGTKLEIKR |
